# Data reported in US20220259289A1 (Janssen / Centocor, published 2022).
# Numbering of substitutions follows the chain as printed.
# B1: ISOP193BR9P1B10 (designed binder, not shown: small tags and cut ends)
# chain: LPAPKNLVVSRVTEDSARLSWAWNRHDFDSFLIQYQESEKVGEAIVLTVPGSERSYDLTGLKPGTEYTVSIYGVHWTVLRPFIDSNPLSAIFTT
# B2: ISOP193AR9P1B4 (designed binder, not shown: small tags and cut ends)
# chain: LPAPKNLVVSRVTEDSARLSWRDLQYHTFDSFLIQYQESEKVGEAIVLTVPGSERSYDLTGLKPGTEYTVSIYGVGRHYTVYDSNPLSAIFTT
# B3: ISOP193AR9P1G11 (designed binder, not shown: small tags and cut ends)
# chain: LPAPKNLVVSRVTEDSARLSWTNEQITKYGFDSFLIQYQESEKVGEAIVLTVPGSERSYDLTGLKPGTEYTVSIYGVGRHYTVYDSNPLSAIFTT
# B4: ISOP193AR9P1F9 (designed binder, not shown: small tags and cut ends)
# chain: B3 chain with T22P, N23L, E24F, Q25A, I26S, T27D, K28L, Y29N, G30I
# B5: ISOP193ER9P1A8 (designed binder, not shown: small tags and cut ends)
# chain: LPAPKNLVVSRVTEDSARLSWTAPDAAFDSLDIYYFEHPVGGEAIVLTVPGSERSYDLTGLKPGTEYLVTIYGVKGGYLSMPLSAIFTT
# B6: ISOP193ER9P1C8 (designed binder, not shown: small tags and cut ends)
# chain: B5 chain with L31F, Y78T, L79Y, M81L
# B7: ISOP193ER9P1E8 (designed binder, not shown: small tags and cut ends)
# chain: B5 chain with L31F, Y78E, M81K
# B8: ISOP193ER9P1F7 (designed binder, not shown: small tags and cut ends)
# chain: B5 chain with R18H, L31F
# B9: ISOP193ER9P1H11 (designed binder, not shown: small tags and cut ends)
# chain: B5 chain with L31F, T70A, Y78V, L79F, M81H
# B10: ISOP193FR9P1G4 (designed binder, not shown: small tags and cut ends)
# chain: B5 chain with L31F, D32E, H38N, P39E, V40L, Y78D, L79W, M81D
# B11: ISOP193HR9P1C8 (designed binder, not shown: small tags and cut ends)
# chain: B5 chain with L31F, D32E, H38L, P39R, V40L, Y78G, L79Y, M81T
# B12: ISOP193FR9P1H9 (designed binder, not shown: small tags and cut ends)
# chain: LPAPKNLVVSRVTEDSARLSWTAPDAAFDSFEIYYDELRNPGEAIVLTVPGSERSYDLTGLKPGTEYAVTIYGVKGGRYSPPLSAIFTT
# B13: ISOP193AR9P1B10 (designed binder, not shown: small tags and cut ends)
# chain: LPAPKNLVVSRVTEDSARLSWAFQWHIFDSFLIQYQESEKVGEAIVLTVPGSERSYDLTGLKPGTEYTVSIYGVGRHYTVYDSNPLSAIFTT
# B14: ISOP193ER9P1A11 (designed binder, not shown: small tags and cut ends)
# chain: LPAPKNLVVSRVTEDSARLSWTAPDAAFDSFAIQYQEYVAHGEAIVLTVPGSERSYDLTGLKPGTEYHVRISGVKGGGVSWPLSAIFTT
# Molecular target: T1, human serum albumin (human, UniProt P02768 25-609)
# T1 construct: Negative control of the ELISA; also called HSA
# Test: ELISA, negative control HSA
# Protocol: (§1) Streptavidin-coated Maxisorp plates (Nunc catalog 436110) were blocked for 1 h in Starting Block T20 (Pierce) and then coated with biotinylated CD137 (using same antigen as in panning) or negative controls (an unrelated Fc-fused recombinant protein and human serum albumin) for 1 h. Plates were rinsed with TBST and diluted lysate was applied to plates for 1 h. Following additional rinses, wells were treated with HRP-conjugated anti-Centyrin antibody (PAB25) for 1 h and then assayed with POD (Roche catalog 11582950001).
# T1 sequence (P02768 25-609 limits assumed): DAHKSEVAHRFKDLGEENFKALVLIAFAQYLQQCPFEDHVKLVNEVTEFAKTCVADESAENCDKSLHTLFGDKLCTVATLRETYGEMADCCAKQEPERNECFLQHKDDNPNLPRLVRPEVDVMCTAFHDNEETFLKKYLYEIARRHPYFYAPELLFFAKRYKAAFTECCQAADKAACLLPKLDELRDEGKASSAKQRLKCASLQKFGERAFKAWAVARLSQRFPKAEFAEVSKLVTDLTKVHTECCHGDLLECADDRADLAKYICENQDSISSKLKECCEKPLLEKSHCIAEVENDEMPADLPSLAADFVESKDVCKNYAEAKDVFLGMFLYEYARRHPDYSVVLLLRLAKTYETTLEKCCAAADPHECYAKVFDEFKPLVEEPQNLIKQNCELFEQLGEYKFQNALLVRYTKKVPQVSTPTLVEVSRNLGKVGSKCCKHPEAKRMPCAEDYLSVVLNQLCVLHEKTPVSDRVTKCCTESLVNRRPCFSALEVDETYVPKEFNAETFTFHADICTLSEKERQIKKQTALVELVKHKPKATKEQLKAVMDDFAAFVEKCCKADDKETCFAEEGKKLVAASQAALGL
row,ELISA HSA (RLU),Binder
1,1200 RLU,B1
2,480 RLU,B2
3,960 RLU,B3
4,560 RLU,B4
5,400 RLU,B5
6,400 RLU,B6
7,480 RLU,B7
8,480 RLU,B8
9,640 RLU,B9
10,640 RLU,B10
11,560 RLU,B11
12,800 RLU,B12
13,480 RLU,B13
14,640 RLU,B14

# Molecular target: extracellular domain of human CD137 on the surface of CHO-K1 cells (human, UniProt Q07011 24-186)
# Test: flow cytometry on CHO-K1 cells with human CD137 ECD
# Protocol: Cell surface binding was analyzed via flow cytometry. Cenyrins were prepared at a maximal concentration of 500 nM in the presence of 125 nM anti His-mIgG1 antibody and then serially diluted in PBS/1% FCS buffer. Samples were then applied to approx 100 000 CHO-Kl cells expressing the extracellular domain of human CD137 on their surface. Unbound Centyrin/Antibody complexes were washed away and bound FN3 domains were detected by the addition of goat anti mouse-FITC labeled antibody. Samples were then aquired by flow cytometry. Subsequently, Mean flurescence intensity was plotted against the log Centyrin concentration and EC50 values were calculated by nonlinear regression using GraphPad Prism.
row,EC50,Binder
1,134 nM,B1
2,13.9 nM,B2
3,10.5 nM,B3
4,218 nM,B4
5,17 nM,B5
6,12.4 nM,B6
7,17.7 nM,B7
8,25 nM,B8
9,184 nM,B9
10,26.9 nM,B10
11,3.27 nM,B11
12,72.8 nM,B12
13,1.21 nM,B13
14,10.6 nM,B14

# Molecular target: unrelated Fc-fused recombinant protein
# Test: ELISA, negative control Fc protein
row,ELISA Fc Control (RLU),Binder
1,2640 RLU,B1
2,960 RLU,B2
3,2240 RLU,B3
4,1600 RLU,B4
5,1440 RLU,B5
6,1040 RLU,B6
7,880 RLU,B7
8,1200 RLU,B8
9,1360 RLU,B9
10,1840 RLU,B10
11,1360 RLU,B11
12,2000 RLU,B12
13,1520 RLU,B13
14,1200 RLU,B14

# Molecular target: T2, recombinant biotinylated CD137 protein (Fc-fusion protein, R&D Systems 838-4B) (human, UniProt Q07011 24-186, biotinylated, sites not stated)
# T2 construct: Bought Fc fusion; also called CD137-Fc
# Test: ELISA, lysate on biotinylated CD137-Fc
# Protocol: as §1
row,ELISA CD137 (RLU),Binder
1,9.73e+06 RLU,B1
2,5.74e+06 RLU,B2
3,5.89e+06 RLU,B3
4,4.71e+06 RLU,B4
5,1.43e+07 RLU,B5
6,1.67e+07 RLU,B6
7,1.64e+07 RLU,B7
8,1.51e+07 RLU,B8
9,2.08e+06 RLU,B9
10,1.4e+07 RLU,B10
11,1.82e+07 RLU,B11
12,2.42e+06 RLU,B12
13,8.12e+06 RLU,B13
14,1.28e+07 RLU,B14
